The results in this text go back to the Immune Epitope Database (IEDB).

The term IC50 denotes the midpoint of a concentration-inhibition curve. One may read the Kd as a measure of binding affinity in units of concentration.

In assay [1] the target is HLA-A*02:01. Briefly: IEDB peptide-MHC binding, purified MHC/competitive/fluorescence; ≥ and ≤ were set here for values at or beyond the usual limits of such assays.
Another assay has as its target HLA-A*26:01. The experiment in a line: IEDB peptide-MHC binding, purified MHC/competitive/radioactivity; filed as Kd, often an IC50 or EC50 that approximates it; ≥ and ≤ were set here for values at or beyond the usual limits of such assays.
Assay [2] deals with HLA-B*15:01. The description is as above.
Assay [3] deals with HLA-A*02:01. Briefly: IEDB peptide-MHC binding, purified MHC/direct/fluorescence; filed as Kd, often an IC50 or EC50 that approximates it; ≥ and ≤ were set here for values at or beyond the usual limits of such assays.
For assay [4], the target named is HLA-B*15:01. The description is as above. The settings on record: source organism: Salmonella enterica subsp. enterica serovar Typhimurium.
The target in a further assay is HLA-A*69:01. The description is as above.
For the next assay, the target named is HLA-B*53:01. The experiment in a line: IEDB peptide-MHC binding, purified MHC/competitive/radioactivity; filed as Kd, often an IC50 or EC50 that approximates it; ≥ and ≤ were set here for values at or beyond the usual limits of such assays.
A further assay concerns the target HLA-B*51:01. The description is as above.
A further assay deals with HLA-B*44:03. Described as above.
The next assay concerns the target HLA-B*44:02. The assay is described as above.
The next assay has as its target HLA-A*30:02. Described as above.
In another assay the target is HLA-B*07:02. The experiment in a line: IEDB peptide-MHC binding, purified MHC/direct/fluorescence; filed as Kd, often an IC50 or EC50 that approximates it; ≥ and ≤ were set here for values at or beyond the usual limits of such assays.
A further assay concerns the target HLA-A*01:01. The experiment in a line: IEDB peptide-MHC binding, purified MHC/competitive/radioactivity; filed as Kd, often an IC50 or EC50 that approximates it; ≥ and ≤ were set here for values at or beyond the usual limits of such assays.
The target of a further assay is HLA-B*46:01. Briefly: IEDB peptide-MHC binding, purified MHC/direct/fluorescence; filed as Kd, often an IC50 or EC50 that approximates it; ≥ and ≤ were set here for values at or beyond the usual limits of such assays. The settings on record: source organism: Yellow fever virus.
In the next assay the target is HLA-A*24:02. Briefly: IEDB peptide-MHC binding, purified MHC/competitive/radioactivity; filed as Kd, often an IC50 or EC50 that approximates it; ≥ and ≤ were set here for values at or beyond the usual limits of such assays.
The target of the next assay is HLA-B*58:01. The experiment in a line: IEDB peptide-MHC binding, purified MHC/direct/fluorescence; filed as Kd, often an IC50 or EC50 that approximates it; ≥ and ≤ were set here for values at or beyond the usual limits of such assays. The settings on record: source organism: Salmonella enterica subsp. enterica serovar Typhimurium.
[5] abbreviates: source organism: Sudan ebolavirus.
The mark [6] stands for this setting: source organism: Dengue virus 2 Jamaica/1409/1983.
[7] abbreviates: source organism: Vaccinia virus WR.
[8] abbreviates: source organism: Salmonella enterica subsp. enterica serovar Typhimurium.
Where [9] appears, read: source organism: Dengue virus 4 Philippines/H241/1956.
Setting [10] is: source organism: Dengue virus 1 Brazil/97-11/1997.
Where [11] appears, read: source organism: Dengue virus 3 Martinique/1243/1999.
The mark [12] stands for this setting: source organism: Dengue virus 1 Singapore/S275/1990.
[13] abbreviates: source organism: Dengue virus 4 Dominica/814669/1981.
The mark [14] stands for this setting: source organism: Dengue virus 2 Peru/IQT2913/1996.

For LVCKDHLAS, the IC50 with HLA-A*02:01 [1] (setting [5]) was not below 185000 nM. In the case of MISRMLINRF, the Kd with HLA-A*26:01 (setting [6]) turned out to be 8330 nM. Take MLIEVILTA: the Kd in the assay with HLA-B*15:01 [2] (setting [7]) was found to be 207 nM.

In the assay with HLA-A*02:01 [1] (source organism: Vaccinia virus), MLSEGRMNS displayed an IC50 of 6520 nM. This counts as single-digit micromolar. Consider MMIDDFGTA, for which, in the assay with HLA-B*15:01 [2] (setting [7]), the Kd came to 7.6 nM. In the case of MMLAQAYYG, the Kd with HLA-A*02:01 [3] (setting [8]) was 273 nM; with HLA-B*15:01 [4] it was 5780 nM; in the assay with HLA-A*69:01 (setting [8]) it was 3190 nM.

With MPLVMAWRT, the results for the Kd with HLA-B*53:01 (setting [9]) and with HLA-B*51:01 (setting [9]) were 88.4 nM and 693 nM, respectively. As for MSFRDLGRVM, in the assay with HLA-B*51:01 (setting [6]), the Kd is not below 38300 nM. As for NEVHTWTEQY, the Kd with HLA-B*44:03 (setting [10]) was found to be 137 nM. Take NGLITSTVT: the IC50 with HLA-A*02:01 [1] (setting [5]) was not below 118000 nM. PLTYLEYPI: the Kd with HLA-A*02:01 [3] (source organism: Homo sapiens) was found to be 2860 nM. On to PPTAGVLARW, for which, in the assay with HLA-B*53:01 (setting [11]), the Kd is 4930 nM. Take QGDNDNWWT: the IC50 with HLA-A*02:01 [1] (source organism: Zaire ebolavirus) is not below 283000 nM. QLSGLGINAV yielded an IC50 with HLA-A*02:01 [1] (source organism: Hepatitis C virus subtype 1b) of 123 nM. For the sequence QQMDPEHRQL, the Kd in the assay with HLA-B*15:01 [2] (setting [11]) was 118 nM. Turning to QTWMSAEGAW, in the assay with HLA-B*44:02 (setting [11]), the Kd is 11900 nM.

RFKGEDGCWY: the equilibrium dissociation constant (Kd) with HLA-A*30:02 (setting [12]) stood at 8.19 nM. The sequence RPKSNIVLL gave a Kd with HLA-B*07:02 (source organism: Homo sapiens) of 200 nM. Consider RPPIFIRRL, for which the Kd in the assay with HLA-B*07:02 (source organism: Human herpesvirus 4 strain B95-8) was 356 nM.

Consider RSGVPPKVV, for which the IC50 with HLA-A*02:01 [1] (setting [5]) was not below 80200 nM. With SEAVNDSRF, the figures for the Kd with HLA-B*44:02 (setting [9]) and with HLA-B*44:03 (setting [9]) were 17.9 nM and 66.6 nM, respectively.

Take SEMIIPKIYG: the Kd with HLA-B*44:02 (setting [12]) stood at 9.53 nM; in the assay with HLA-B*44:03 (setting [12]), 18.8 nM. Regarding SIGKMFESTY, the Kd in the assay with HLA-A*01:01 (setting [13]) worked out at 17000 nM; with HLA-A*30:02 (setting [13]) it was 37.4 nM.

With SIQDNQVAY, the Kd with HLA-B*46:01 was 19700 nM. On to SLFSLLPGV, for which the Kd with HLA-A*02:01 [3] (source organism: Amur virus) and with HLA-A*69:01 (source organism: Amur virus) was not above 1 nM each time. Regarding SVIEKMETL, in the assay with HLA-A*26:01 (setting [6]), the Kd came to 152 nM.

On to TEMGRLPTF, for which the results for the Kd with HLA-B*44:02 (setting [6]) and with HLA-B*44:03 (setting [6]) were 10 nM and 24 nM, respectively.

For the sequence TMKHKKATY, the Kd came to 83.4 nM in the assay with HLA-B*15:01 [2] (setting [6]) and 1200 nM with HLA-A*30:02 (setting [6]). With TMRHKKATY, the figures for the Kd with HLA-B*15:01 [2] (setting [14]) and with HLA-A*30:02 (setting [14]) were 442 nM and not below 76900 nM, respectively. Regarding TPVHSWEDI, the results for the Kd in the assay with HLA-B*53:01 (setting [9]) and in the assay with HLA-B*51:01 (setting [9]) were 2220 nM and 16000 nM, respectively.

TSIGLLCVM: in the assay with HLA-A*26:01 (setting [12]), the Kd worked out at 2450 nM. TTLPSQNST displayed an IC50 with HLA-A*02:01 [1] (setting [5]) not below 206000 nM. As for TVITPMMRH, the Kd with HLA-A*26:01 (setting [10]) was found to be 1700 nM.

On to TWAKNIQTAI, for which, in the assay with HLA-A*24:02 (setting [6]), the Kd came to 512 nM. For VGMGEAAAIF, the Kd with HLA-A*24:02 (setting [10]) is 8640 nM. Turning to VIIHVIEHL, the Kd with HLA-B*15:01 [2] (setting [7]) turned out to be 1190 nM.

In the assay with HLA-A*02:01 [1] (setting [5]), VMATEEPTT gave a concentration for half-maximal inhibition (IC50) not below 144000 nM. With VPLAGPLIA, the Kd with HLA-B*51:01 (setting [10]) amounted to 14800 nM. With VPLQWIASAI, in the assay with HLA-B*51:01 (source organism: Dengue virus 3 Sri Lanka/1266/2000), the Kd is 21.7 nM.

Regarding WEGSPGKFW, the Kd in the assay with HLA-B*44:02 (setting [10]) turned out to be 24.4 nM; with HLA-B*44:03 (setting [10]) it was 53.5 nM. In the case of WPLNEAIMAV, the Kd in the assay with HLA-B*51:01 (setting [6]) was 470 nM. For the sequence WYGMEIRPI, the Kd in the assay with HLA-A*24:02 (setting [11]) amounted to 3020 nM. YENLKYSVI: in the assay with HLA-B*44:02 (setting [10]), the Kd came to 90.2 nM.

On to YFIKHVLAF, for which the Kd with HLA-B*15:01 [2] (setting [7]) came to 2.53 nM. Take YLAGAGLLF: the results for the Kd with HLA-B*15:01 [2] (setting [6]), in the assay with HLA-A*26:01 (setting [6]) and with HLA-A*24:02 (setting [6]) were 1.86 nM, 2130 nM and 28.5 nM, respectively. Regarding YLGPTIRVW, the equilibrium dissociation constant (Kd) with HLA-A*02:01 [3] (setting [8]) amounted to 1870 nM; with HLA-B*15:01 [4], 1220 nM; with HLA-B*58:01, 127 nM; with HLA-B*07:02 (setting [8]) it was 13200 nM. In the case of YSQIGAGVY, the Kd with HLA-B*15:01 [2] (setting [6]) amounted to 15.6 nM; with HLA-A*01:01 (setting [6]), 63.4 nM; in the assay with HLA-A*30:02 (setting [6]) it was 2.03 nM.
